Results reported in patent US20250179429A1, “CELL CULTURE MEDIUM” (Auckland UniServices Limited, priority 2017, published 2025).
Like-named read-outs stand apart in the source and are kept apart here.

Test system: Human primary keratinocytes
Experiment: Keratinocyte growth in culture media: rhodamine B staining, confluency measured with Operetta plate reader
Assay type: cell-based

B1: KGF: Keratinocyte growth factor, encoded in humans by the FGF7 gene, binds FGFR2b (protein, UniProt P21781 32-194, looked up)
Fibroblast growth factor 7: CNDMTPEQMATNVNCSSPERHTRSYDYMEGGDIRVRRLFCRTQWYLRIDKRGKVKGTQEMKNNYNIMEIRTVAVGIVAIKGVESEFYLAMNKEGKLYAKKECNEDCNFKELILENHYNTYASAKWTHNGGEMFVALNQKGIPVRGKKTKKEQKTAHFLPMAIT
**Q.** Which results are given for B1?
**A.** effect of added KGF on keratinocyte growth, FIG. 1: cannot rescue the growth; effect of added KGF on keratinocyte growth, FIG. 1 (added to Green's media + Y27632): fails to enhance keratinocyte growth; effect of added KGF on keratinocyte growth, FIG. 1 (added to base media + Y27632): stimulates growth; effect of adding KGF to Base medium on keratinocyte growth, FIG. 2 (in the presence of ROCK inhibitor SB772077B, no MEFs): critical component in Kelch's medium
